Experimental data from patent US20220096547A1.

These substances were tested against human TLR5 (human) (UniProt O60602) (assay: cell-based or functional assay).
UniProt O60602, sequence (O60602 21-858): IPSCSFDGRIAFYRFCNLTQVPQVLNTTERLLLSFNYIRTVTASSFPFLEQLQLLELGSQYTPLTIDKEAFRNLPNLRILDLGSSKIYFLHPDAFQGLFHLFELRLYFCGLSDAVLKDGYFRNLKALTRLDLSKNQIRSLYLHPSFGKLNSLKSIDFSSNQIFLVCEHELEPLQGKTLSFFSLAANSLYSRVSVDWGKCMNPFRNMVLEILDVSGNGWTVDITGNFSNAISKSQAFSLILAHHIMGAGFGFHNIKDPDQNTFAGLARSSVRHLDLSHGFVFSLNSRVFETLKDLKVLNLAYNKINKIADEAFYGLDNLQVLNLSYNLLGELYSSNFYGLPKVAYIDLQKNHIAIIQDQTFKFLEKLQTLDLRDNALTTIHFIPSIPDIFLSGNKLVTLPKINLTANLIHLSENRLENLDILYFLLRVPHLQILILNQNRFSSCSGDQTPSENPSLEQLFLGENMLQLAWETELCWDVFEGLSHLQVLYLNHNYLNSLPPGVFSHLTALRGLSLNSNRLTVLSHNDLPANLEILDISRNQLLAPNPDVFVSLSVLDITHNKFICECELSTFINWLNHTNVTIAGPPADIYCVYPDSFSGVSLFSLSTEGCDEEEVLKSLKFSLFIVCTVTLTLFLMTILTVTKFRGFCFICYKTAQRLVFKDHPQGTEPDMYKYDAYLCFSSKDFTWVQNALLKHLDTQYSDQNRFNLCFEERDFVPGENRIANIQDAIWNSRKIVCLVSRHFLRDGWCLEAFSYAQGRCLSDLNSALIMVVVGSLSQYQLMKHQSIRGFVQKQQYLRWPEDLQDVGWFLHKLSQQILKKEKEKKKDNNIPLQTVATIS

Substance | TLR5 activation activity (NF-κB SEAP reporter assay) compared to full-length flagellin [%]
Salmonella typhimurium flagellin fragment Flic-6a (from UniProt P06175 71-493) (ligand) | > 50
Salmonella typhimurium flagellin fragment Flic-7a (from UniProt P06175 71-493) (ligand) | > 50
Salmonella typhimurium flagellin fragment Flic-8a (from UniProt P06175 71-493) (ligand) | > 50
Salmonella typhimurium flagellin fragment Flic-12a (from UniProt P06175 37-493) (ligand) | > 50
Salmonella typhimurium flagellin fragment Flic-14a (from UniProt P06175 37-493) (ligand) | > 50
Salmonella typhimurium flagellin fragment Flic-15a (from UniProt P06175 37-493) (ligand) | > 50
Salmonella typhimurium flagellin fragment Flic-20a (from UniProt P06175 51-493) (ligand) | > 50
Salmonella typhimurium flagellin fragment Flic-21a (from UniProt P06175 51-469) (ligand) | > 50
Salmonella typhimurium flagellin fragment Flic-22a (from UniProt P06175 51-493) (ligand) | > 50
Salmonella typhimurium flagellin fragment Flic-23a (from UniProt P06175 51-493) (ligand) | > 50
